# Results from patent EP2649983A1 (Lipotec, S.A., dated 2013).
# Biological target: SNARE complex in cells of a human neuroblastoma cell line (human, UniProt P60880 1-206)
# Assay: cell-based or functional assay
# SNARE complex in cells of a human neuroblastoma cell line, sequence (P60880 whole entry, one chain of several): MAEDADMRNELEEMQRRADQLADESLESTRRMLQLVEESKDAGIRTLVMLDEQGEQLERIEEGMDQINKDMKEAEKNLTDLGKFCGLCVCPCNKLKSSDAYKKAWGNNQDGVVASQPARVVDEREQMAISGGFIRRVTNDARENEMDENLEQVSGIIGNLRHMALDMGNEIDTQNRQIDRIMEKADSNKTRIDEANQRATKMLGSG
Binder,"% RELEASED NO… (Average), dose 10 µM [%]","% RELEASED NO… (Average), dose 100 µM [%]","% RELEASED NO… (Average), dose 1000 µM [%]","% RELEASED NO… (Average), dose 1 µM [%]","% RELEASED NO… (Average), dose 500 µM [%]"
Ac-EDLKRWM-NH2 [Ac-SEQ ID NO:14-NH2],85,86,45.8,,
Ac-DHFQQRM-NH2 [Ac-SEQ ID NO:24-NH2],97.1,89,67.9,90.6,78.1
Ac-DHFLDWM-NH2 [Ac-SEQ ID NO:25-NH2],94.5,74.8,41,99.6,48.1
Ac-EHLKQWM-NH2 [Ac-SEQ ID NO:1-NH2],93.1,79.6,42.5,96.1,49.1
